The target of test [1] is mouse melanocortin 1 receptor (mouse) (UniProt Q01727).
The target in test [2] is mouse melanocortin 3 receptor (mouse) (UniProt P33033).
In test [3] the target is mouse melanocortin 4 receptor (mouse) (UniProt P56450).
Test [4] has as its target mouse melanocortin 5 receptor (mouse) (UniProt P41149).
UniProt P41149, sequence (P41149 whole entry): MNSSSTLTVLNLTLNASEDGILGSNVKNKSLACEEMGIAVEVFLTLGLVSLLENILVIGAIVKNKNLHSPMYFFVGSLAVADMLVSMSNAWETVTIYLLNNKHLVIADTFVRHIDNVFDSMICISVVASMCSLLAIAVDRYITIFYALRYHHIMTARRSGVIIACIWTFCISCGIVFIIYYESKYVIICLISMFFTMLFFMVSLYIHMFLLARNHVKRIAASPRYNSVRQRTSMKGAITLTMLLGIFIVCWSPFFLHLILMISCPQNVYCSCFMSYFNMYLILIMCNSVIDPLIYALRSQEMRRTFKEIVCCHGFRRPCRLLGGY

UniProt Q01727, sequence (Q01727 whole entry): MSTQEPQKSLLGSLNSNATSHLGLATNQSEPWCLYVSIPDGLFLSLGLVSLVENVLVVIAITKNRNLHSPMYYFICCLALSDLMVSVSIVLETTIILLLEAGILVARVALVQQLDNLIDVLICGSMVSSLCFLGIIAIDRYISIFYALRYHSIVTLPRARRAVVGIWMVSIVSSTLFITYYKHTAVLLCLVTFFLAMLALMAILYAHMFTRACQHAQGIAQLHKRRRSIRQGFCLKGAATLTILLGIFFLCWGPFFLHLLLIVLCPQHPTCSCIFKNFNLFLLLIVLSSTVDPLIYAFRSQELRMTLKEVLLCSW
UniProt P33033, sequence (P33033 whole entry): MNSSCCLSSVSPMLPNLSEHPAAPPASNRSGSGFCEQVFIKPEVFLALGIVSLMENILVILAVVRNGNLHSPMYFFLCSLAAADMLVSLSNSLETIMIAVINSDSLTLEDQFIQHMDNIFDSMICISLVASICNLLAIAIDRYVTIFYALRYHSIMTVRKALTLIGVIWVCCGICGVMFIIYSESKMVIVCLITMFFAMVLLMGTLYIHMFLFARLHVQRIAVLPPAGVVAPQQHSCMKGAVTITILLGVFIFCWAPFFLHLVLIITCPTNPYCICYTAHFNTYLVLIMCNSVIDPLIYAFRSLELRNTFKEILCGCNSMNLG
UniProt P56450, sequence (P56450 whole entry): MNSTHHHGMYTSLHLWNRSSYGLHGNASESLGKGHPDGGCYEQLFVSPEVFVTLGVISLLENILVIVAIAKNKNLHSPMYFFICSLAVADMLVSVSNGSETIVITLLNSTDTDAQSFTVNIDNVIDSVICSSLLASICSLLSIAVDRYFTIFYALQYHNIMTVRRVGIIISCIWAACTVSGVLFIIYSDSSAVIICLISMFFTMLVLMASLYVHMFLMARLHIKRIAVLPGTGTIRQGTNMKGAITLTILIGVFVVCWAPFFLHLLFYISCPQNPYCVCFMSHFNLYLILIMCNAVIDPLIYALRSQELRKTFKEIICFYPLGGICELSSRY

In test [1], “ClpB(535-548) (from UniProt P63284 535-548) (peptide)” yielded an agonist EC50, AlphaScreen cAMP assay on stably transfected HEK293 cells of 41000 nM.

As to α-MSH (peptide), the agonist EC50, AlphaScreen cAMP assay on stably transfected HEK293 cells in test [1] was determined as 0.14 nM; in test [2], 0.5 nM; in test [3] it was 2.9 nM; in test [4], 0.51 nM.

Source of the values: PMC4628882.
